Here are results for two variants from IntAct's records for PubMed 31260151.

The chains are these.
B1: Serine protease HTRA3 (Homo sapiens), P83110-2 (parent)
chain: MQARALLLAALAALALAREPPAAPCPARCDVSRCPSPRCPGGYVPDLCNCCLVCAASEGEPCGGPLDSPCGESLECVRGLCRCRWSHAVCGTDGHTYANVCALQAASRRALQLSGTPVRQLQKGACPLGLHQLSSPRYKFNFIADVVEKIAPAVVHIELFLRHPLFGRNVPLSSGSGFIMSEAGLIITNAHVVSSNSAAPGRQQLKVQLQNGDSYEATIKDIDKKSDIATIKIHPKKKLPVLLLGHSADLRPGEFVVAIGSPFALQNTVTTGIVSTAQREGRELGLRDSDMDYIQTDAIINYGNSGGPLVNLDGEVIGINTLKVTAGISFAIPSDRITRFLTEFQDKQIKAPSLAVH
B2: Serine protease HTRA3 (Homo sapiens), P83110-1 (parent)
chain: MQARALLLAALAALALAREPPAAPCPARCDVSRCPSPRCPGGYVPDLCNCCLVCAASEGEPCGGPLDSPCGESLECVRGLCRCRWSHAVCGTDGHTYANVCALQAASRRALQLSGTPVRQLQKGACPLGLHQLSSPRYKFNFIADVVEKIAPAVVHIELFLRHPLFGRNVPLSSGSGFIMSEAGLIITNAHVVSSNSAAPGRQQLKVQLQNGDSYEATIKDIDKKSDIATIKIHPKKKLPVLLLGHSADLRPGEFVVAIGSPFALQNTVTTGIVSTAQREGRELGLRDSDMDYIQTDAIINYGNSGGPLVNLDGEVIGINTLKVTAGISFAIPSDRITRFLTEFQDKQIKDWKKRFIGIRMRTITPSLVDELKASNPDFPEVSSGIYVQEVAPNSPSQRGGIQDGDIIVKVNGRPLVDSSELQEAVLTESPLLLEVRRGNDDLLFSIAPEVVM

Variants of B1 are the subject of the first assay. The following applies: with xiap_human XIAP.
Target sequence in this assay (P98170 whole entry): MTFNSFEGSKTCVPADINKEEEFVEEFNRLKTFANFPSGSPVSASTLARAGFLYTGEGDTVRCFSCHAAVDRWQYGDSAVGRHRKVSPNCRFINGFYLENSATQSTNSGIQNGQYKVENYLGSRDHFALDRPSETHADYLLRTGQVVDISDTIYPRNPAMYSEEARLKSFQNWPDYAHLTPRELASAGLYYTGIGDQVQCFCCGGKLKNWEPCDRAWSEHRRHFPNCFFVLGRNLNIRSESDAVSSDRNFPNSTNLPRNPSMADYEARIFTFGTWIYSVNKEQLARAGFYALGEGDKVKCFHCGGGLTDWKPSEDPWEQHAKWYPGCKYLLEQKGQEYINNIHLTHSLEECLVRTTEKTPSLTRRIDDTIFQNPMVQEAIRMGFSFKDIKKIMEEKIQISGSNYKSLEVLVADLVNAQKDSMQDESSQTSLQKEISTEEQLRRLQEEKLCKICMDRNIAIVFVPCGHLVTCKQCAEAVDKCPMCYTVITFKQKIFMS
In the case of S305A, the “effect of a mutation on the interaction” value is given as “decreasing interaction strength”.

Another assay covers variants of B2. The note with it: with xiap_human XIAP.
Target sequence in this assay (P98170 whole entry): as above
With S305A, the “effect of a mutation on the interaction” value is “decreasing interaction strength”.
